Assay results taken from paper PMC6168860, “Dual Role of a Viral Polymerase in Viral Genome Replication and Particle Self-Assembly” (mBio, 2018).

B1: Pseudomonas phage Φ6 major capsid protein P1 (natural protein, UniProt P11126 1-769, looked up)
chain: MFNLKVKDLNGSARGLTQAFAIGELKNQLSVGALQLPLQFTRTFSASMTSELLWEVGKGNIDPVMYARLFFQYAQAGGALSVDELVNQFTEYHQSTACNPEIWRKLTAYITGSSNRAIKADAVGKVPPTAILEQLRTLAPSEHELFHHITTDFVCHVLSPLGFILPDAAYVYRVGRTATYPNFYALVDCVRASDLRRMLTALSSVDSKMLQATFKAKGALAPALISQHLANAATTAFERSRGNFDANAVVSSVLTILGRLWSPSTPKELDPSARLRNTNGIDQLRSNLALFIAYQDMVKQRGRAEVIFSDEELSSTIIPWFIEAMSEVSPFKLRPINETTSYIGQTSAIDHMGQPSHVVVYEDWQFAKEITAFTPVKLANNSNQRFLDVEPGISDRMSATLAPIGNTFAVSAFVKNRTAVYEAVSQRGTVNSNGAEMTLGFPSVVERDYALDRDPMVAIAALRTGIVDESLEARASNDLKRSMFNYYAAVMHYAVAHNPEVVVSEHQGVAAEQGSLYLVWNVRTELRIPVGYNAIEGGSIRTPEPLEAIAYNKPIQPSEVLQAKVLDLANHTTSIHIWPWHEASTEFAYEDAYSVTIRNKRYTAEVKEFELLGLGQRRERVRILKPTVAHAIIQMWYSWFVEDDRTLAAARRTSRDDAEKLAIDGRRMQNAVTLLRKIEMIGTTGIGASAVHLAQSRIVDQMAGRGLIDDSSDLHVGINRHRIRIWAGLAVLQMMGLLSRSEAEALTKVLGDSNALGMVVATTDIDPSL
notes: major capsid protein P1 of Pseudomonas phage Φ6, wild type; The shell holds 120 copies of P1 (60 asymmetric P1A/P1B dimers) by the introduction; In the recombinant PCs of a11 P1 was co-expressed from pLM687 in E. coli JM109; also called main structural P1 protein; P1 shell; source: E. coli JM109, P1P4 particles from plasmid pLM358, P1 purified as previously described

Assays:
[1] = molecular target: B1; test: co-sedimentation; in vitro self-assembly of purified P1, P4 (120:72) and P2 or P2 variant at 10×P2 (P1:P2 120:120), no P7; room temperature, 90 min, 250 to 350 mM NaCl, 20 mM Tris pH 8.0, 6% PEG 4000; rate-zonal centrifugation in 10% to 30% sucrose, P2 copies per particle from SDS-PAGE; details: both partners purified
[2] = molecular target: the molecule itself; test: co-sedimentation; in vitro self-assembly of purified P1 and P4 (120:72), no P2, no P7 (P1P4 reaction); room temperature, 90 min, 250 to 350 mM NaCl, 20 mM Tris pH 8.0, 6% PEG 4000, P1 about 0.2 mg/ml; rate-zonal centrifugation in 10% to 30% sucrose, light-scattering zones analysed by SDS-PAGE

Binder | copies of P2 variant per particle [1] | binding result [2]
Φ6 P2 surface mutant HER (histidine-tagged) (enzyme, Pseudomonas phage Φ6, UniProt P11124 1-665, looked up, RNA-dependent RNA polymerase P2 of Pseudomonas phage Φ6 with His443 to Ala, Glu444 to Gln and Arg470 to Ala, made from pEM33 (C-terminal hexahistidine tag); source: E. coli BL21(DE3), plasmid pXS29, purified as described for N-terminally histidine-tagged P2; not shown: His6, C-terminal, kept) MPRRAPAFPLSDIKAQMLFANNIKAQQASKRSFKEGAIETYEGLLSVDPRFLSFKNELSRYLTDHFPANVDEYGRVYGNGVRTNFFGMRHMNGFPMIPATWPLASNLKKRADADLADGPVSERDNLLFRAAVRLMFSDLEPVPLKIRKGSSTCIPYFSNDMGTKIEIAERALEKAEEAGNLMLQGKFDDAYQLHQMGGAYYVVYRAQSTDAITLDPKTGKFVSKDRMVADFEYAVTGGEQGSLFAASKDASRLKEQYGIDVPDGFFCERRRTAMGGPFALNAPIMAVAQPVRNKIYSKYAYTFHHTTRLNKEEKVKEWSLCVATDVSDHDTFWPGWLRDLICDELLNMGYAPWWVKLFETSLKLPVYVGAPAPEQGHTLLGDPSNPDLEVGLSSGQGATDLMGTLLMSITYLVMQLDHTAPHLNSRIKDMPSACRFLDSYWQGAQEIRQISKSDDAILGWTKGRALVGGHALFEMLKEGKVNPSPYMKISYEHGGAFLGDILLYDSRREPGSAIFVGNINSMLNNQFSPEYGVQSGVRDRSKRKRPFPGLAWASMKDTYGACPIYSDVLEAIERCWWNAFGESYRAYREDMLKRDTLELSRYVASMARQAGLAELTPIDLEVLADPNKLQYKWTEADVSANIHEVLMHGVSVEKTERFLRSVMPR | 6 copies per particle | 
Φ6 P2 surface mutant HERW (histidine-tagged) (enzyme, Pseudomonas phage Φ6, UniProt P11124 1-665, looked up, source: E. coli BL21(DE3), plasmid pXS30, purified as described for N-terminally histidine-tagged P2; not shown: His6, C-terminal, kept) MPRRAPAFPLSDIKAQMLFANNIKAQQASKRSFKEGAIETYEGLLSVDPRFLSFKNELSRYLTDHFPANVDEYGRVYGNGVRTNFFGMRHMNGFPMIPATWPLASNLKKRADADLADGPVSERDNLLFRAAVRLMFSDLEPVPLKIRKGSSTCIPYFSNDMGTKIEIAERALEKAEEAGNLMLQGKFDDAYQLHQMGGAYYVVYRAQSTDAITLDPKTGKFVSKDRMVADFEYAVTGGEQGSLFAASKDASRLKEQYGIDVPDGFFCERRRTAMGGPFALNAPIMAVAQPVRNKIYSKYAYTFHHTTRLNKEEKVKEWSLCVATDVSDHDTFWPGWLRDLICDELLNMGYAPWWVKLFETSLKLPVYVGAPAPEQGHTLLGDPSNPDLEVGLSSGQGATDLMGTLLMSITYLVMQLDHTAPHLNSRIKDMPSACRFLDSYWQGAQEIRQISKSDDAILGWTKGRALVGGHALFEMLKEGKVNPSPYMKISYEHGGAFLGDILLYDSRREPGSAIFVGNINSMLNNQFSPEYGVQSGVRDRSKRKRPFPGLAWASMKDTYGACPIYSDVLEAIERCWANAFGESYRAYREDMLKRDTLELSRYVASMARQAGLAELTPIDLEVLADPNKLQYKWTEADVSANIHEVLMHGVSVEKTERFLRSVMPR | 4 copies per particle | 
Φ6 P2 surface mutant W576A (histidine-tagged) (enzyme, Pseudomonas phage Φ6, UniProt P11124 1-665, looked up, RNA-dependent RNA polymerase P2 of Pseudomonas phage Φ6 with Trp576 to Ala, made from pEM33 (C-terminal hexahistidine tag); source: E. coli BL21(DE3), plasmid pXS28, purified as described for N-terminally histidine-tagged P2; not shown: His6, C-terminal, kept) MPRRAPAFPLSDIKAQMLFANNIKAQQASKRSFKEGAIETYEGLLSVDPRFLSFKNELSRYLTDHFPANVDEYGRVYGNGVRTNFFGMRHMNGFPMIPATWPLASNLKKRADADLADGPVSERDNLLFRAAVRLMFSDLEPVPLKIRKGSSTCIPYFSNDMGTKIEIAERALEKAEEAGNLMLQGKFDDAYQLHQMGGAYYVVYRAQSTDAITLDPKTGKFVSKDRMVADFEYAVTGGEQGSLFAASKDASRLKEQYGIDVPDGFFCERRRTAMGGPFALNAPIMAVAQPVRNKIYSKYAYTFHHTTRLNKEEKVKEWSLCVATDVSDHDTFWPGWLRDLICDELLNMGYAPWWVKLFETSLKLPVYVGAPAPEQGHTLLGDPSNPDLEVGLSSGQGATDLMGTLLMSITYLVMQLDHTAPHLNSRIKDMPSACRFLDSYWQGHEEIRQISKSDDAILGWTKGRALVGGHRLFEMLKEGKVNPSPYMKISYEHGGAFLGDILLYDSRREPGSAIFVGNINSMLNNQFSPEYGVQSGVRDRSKRKRPFPGLAWASMKDTYGACPIYSDVLEAIERCWANAFGESYRAYREDMLKRDTLELSRYVASMARQAGLAELTPIDLEVLADPNKLQYKWTEADVSANIHEVLMHGVSVEKTERFLRSVMPR | 12 copies per particle | 
B1 |  | binds
